Data from US20140349871A1 (University of Washington, published 2014).

Molecular target: T1, prohibitin-2 (PHB2) (human, UniProt Q99623 2-299)
T1 construct: whole, on cells; also called BAP37
Experiment: in vivo PIR (BDP-NHP) cross-linking of intact HeLa cells, ReACT LC-MS3

T1 sequence (Q99623 2-299): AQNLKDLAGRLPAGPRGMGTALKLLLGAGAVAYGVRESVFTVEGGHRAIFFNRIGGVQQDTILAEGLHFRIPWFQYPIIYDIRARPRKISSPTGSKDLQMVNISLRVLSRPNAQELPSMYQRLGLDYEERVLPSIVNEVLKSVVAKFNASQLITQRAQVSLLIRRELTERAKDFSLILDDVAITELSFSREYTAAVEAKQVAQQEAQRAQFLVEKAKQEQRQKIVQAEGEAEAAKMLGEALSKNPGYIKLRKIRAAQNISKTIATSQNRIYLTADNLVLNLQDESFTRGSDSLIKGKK

B1: prohibitin (PHB) (other, human, UniProt P35232 2-272, looked up)
chain: AAKVFESIGKFGLALAVAGGVVNSALYNVDAGHRAVIFDRFRGVQDIVVGEGTHFLIPWVQKPIIFDCRSRPRNVPVITGSKDLQNVNITLRILFRPVASQLPRIFTSIGEDYDERVLPSITTEILKSVVARFDAGELITQRELVSRQVSDDLTERAATFGLILDDVSLTHLTFGKEFTEAVEAKQVAQQEAERARFVVEKAEQQKKAAIISAEGDSKAAELIANSLATAGDGLIELRKLEAAEDIAYQLSRSRNITYLPAGQSVLLQLPQ
notes: whole, on cells; also called prohibitin 1; BAP32
  binding result: binds
